Target: DS-Cav1 (RSV F-protein, pre-form, in-house) (respiratory syncytial virus (RSV), UniProt P03420 26-513)
Assay: ELISA, coated DS-Cav1, IgG titrated

Sequence of DS-Cav1 (RSV F-protein, pre-form, in-house) (P03420 26-524): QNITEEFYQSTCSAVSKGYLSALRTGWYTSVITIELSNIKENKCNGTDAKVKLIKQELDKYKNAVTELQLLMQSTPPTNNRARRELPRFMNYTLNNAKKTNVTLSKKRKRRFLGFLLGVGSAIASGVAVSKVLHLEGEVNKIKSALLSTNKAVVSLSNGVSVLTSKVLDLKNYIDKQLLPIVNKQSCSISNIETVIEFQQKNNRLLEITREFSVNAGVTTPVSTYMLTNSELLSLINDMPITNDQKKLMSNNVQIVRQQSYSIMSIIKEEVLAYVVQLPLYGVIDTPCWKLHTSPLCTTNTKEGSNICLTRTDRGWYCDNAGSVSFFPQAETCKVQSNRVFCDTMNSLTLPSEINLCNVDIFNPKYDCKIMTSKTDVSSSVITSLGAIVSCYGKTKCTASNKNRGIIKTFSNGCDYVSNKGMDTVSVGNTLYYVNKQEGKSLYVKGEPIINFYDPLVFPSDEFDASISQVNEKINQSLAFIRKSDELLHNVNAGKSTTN

Binder | Kd
#6m (antibody, V domains shown, Germline-edited (m) form of 2E7, light chain edited; IgG; also called 2E7 (modified)) VH: EVQLVESGGGLVKPGGSLRLSCAGSGFTFSSYTMHWVRQAPGKGLEWVSSITGGSSYVDYSASVKGRFTISRDNAQSSLYLQMNSLRAEDTAVYYCARDDYGSGSYSNWFDPWGQGTLVTVSS VL: QSVLTQPPSASGTPGQRVTISCTGSSSNIGAGYDVHWYQQLPGAAPRLLMFGNSNRPSGVPDRFSGSKSGTSASLAITGLQADDEADYYCQSYDRSLSHVFGTGTKVTVLG | ~2.34 nM
12A1 (antibody, V domains shown, IgG made in Expi293; also called #8) VH: EVQLVESGGGLIQPGGSLRLSCAGSGFTFSSYTMHWVRQAPGKGLEWVSSITGGSSYVDYSASVKGRFTISRDNAQSSLYLQMNSLRAEDTAVYYCARDDYGSGSYSNWFDPWGQGTLVTVSS VL: QSVLTQPPSVSGAPGQRVTISCTGSSSDIGAGYDVHWYQQLPGTAPKLLIFANTNRPSGVPDRFSGSKSGASASLAITGLQADDEADYYCQSYDRSLSHVFGTGTKVTVLG | ~1.66 nM
2H2 (antibody, V domains shown, IgG made in Expi293; also called #7) VH: QVQLVQSGGGLIQPGGSLRLSCAGSGFTFSSYTMHWVRQAPGKGLEWVSSITGGSSYVDYSASVKGRFTISRDNAQSSLYLQMNSLRAEDTAVYYCARDDYGSGSYSNWFDPWGQGTLVTVSS VL: QSVLTQPPSVSGAPGQRVTISCTGSSSNIGAGYDVHWYQQLPGTAPKLLIFANTNRPSGVPDRFSGSKSGASASLAITGLQADDEADYYCQSYDRSLSHVFGTGTKVTVLG | ~0.44 nM
5E9 (antibody, V domains shown, IgG made in Expi293; also called #60; 60) VH: QVQLVQSGPEVKKPGSSVKVSCKASGYTFGHYGISWVRQAPGQGLEWMAWISAYNGNTDSIQKVQGRVTMTTDTSTNTAYLELRSLRSDDTAVYYCVRDVPATGGAATADYWGQGTTVTVSS VL: DVVMTQSPLSLPVTLGQPASISCRSSQSLVFSDGNTYLSWFQQRPGQSPRRLIYKVSNRDSGVPDRFSASGSGTDFTLKISRVEADDVGVYYCMQVTHWPRTFGQGTRLEIKR | ~1.31 nM
5C9 (antibody, V domains shown, IgG made in Expi293; also called #61; 61) VH: QVQLVQSGSEVKKPGASVKVSCKASGYTFGHYGISWVRQAPGQGLEWMAWISAYNGNTDSIQKVQGRVTMTTDTSTNTAYLELRSLRSDDTAVYYCVRDVPATGGAATADYWGQGTTVTVSS VL: DVVMTQSPLSLPVTLGQPASISCRSSQSLVFSDGNTYLSWFQQRPGQSPRRLIYKVSNRDSGVPDRFSASGSGTDFTLKISRVEADDVGVYYCMQVTHWPRTFGQGTKLEIKR | ~0.8 nM
5C7 (antibody, V domains shown, IgG made in Expi293; also called #62; 62) VH: QVQLQQSGSEVKKPGASVKVSCKASGYTFGHYGISWVRQAPGQGLEWMAWISAYNGNTDSIQKVQGRVTMTTDTSTNTAYLELRSLRSDDTAVYYCVRDVPATGGAATADYWGQGTLVTVSS VL: DVVMTQSPLSLPVPLGQPASISCRSSQSLVHSDGNTYLSWFQQRPGQSPRRLIYKVSDRDSGVPDRFSGSGSGTDFTLKISRVEAEDVGVYYCMQVTHWPRTFGQGTRLEIKR | ~0.84 nM
#62m (antibody, V domains shown, Germline-edited (m) form of 5C7, heavy chain edited; IgG; also called 5C7 (modified)) VH: QVQLVQSGAEVKKPGASVKVSCKASGYTFGHYGISWVRQAPGQGLEWMAWISAYNGNTDSIQKVQGRVTMTTDTSTNTAYLELRSLRSDDTAVYYCVRDVPATGGAATADYWGQGTLVTVSS VL: DVVMTQSPLSLPVPLGQPASISCRSSQSLVHSDGNTYLSWFQQRPGQSPRRLIYKVSDRDSGVPDRFSGSGSGTDFTLKISRVEAEDVGVYYCMQVTHWPRTFGQGTRLEIKR | ~1.27 nM
8A11 (antibody, V domains shown, IgG made in Expi293; also called #63; 63) VH: QVQLVQSGSEVKKPGASVKVSCKASGYTFGHYGISWVRQAPGQGLEWMAWISAYNGNTDSIQKVQGRVTMTTDTSTNTAYLELRSLRSDDTAVYYCVRDVPATGGAATADYWGQGTLVTVSS VL: DVVMTQSPLSLPVTLGQPASISCKSSRSLVHSDGNTYLSWFQQRPGQSPRRLIYKVSNRDSGVPDRFSASGSGTDFTLKISRVEADDVGVYYCMQVTHWPRTFGQGTKLEIKR | ~0.69 nM
D25 (antibody, V domains shown) VH: QVQLVQSGAEVKKPGSSVMVSCQASGGPLRNYIINWLRQAPGQGPEWMGGIIPVLGTVHYAPKFQGRVTITADESTDTAYIHLISLRSEDTAMYYCATETALVVSTTYLPHYFDNWGQGTLVTVSS VL: DIQMTQSPSSLSAAVGDRVTITCQASQDIVNYLNWYQQKPGKAPKLLIYVASNLETGVPSRFSGSGSGTDFSLTISSLQPEDVATYYCQQYDNLPLTFGGGTKVEIK | ~0.73 nM
9H4 (antibody, V domains shown, IgG made in Expi293; also called #52; 52) VH: QVQLVQSGGGLVQPGGSLRISCTASGFTFRNYEMNWVRQAPGKGLEWVAYISSSGSSRYYADSVKGRFTISRDNAKNSLFLQMNSLRAEDMAVYYCARTDDGSSWFVSTSSFYGMDVWGQGTTVTVSS VL: EIVLTQSPGIQSLSPGETATLSCRASESISSSYFAWYQQKPGQAPRLLIYGASSRASGIPDRFSGSGSGTDFTLTISRLEPEDFAVYYCQQYGSSPPITFGQGTRLEIKR | ~0.89 nM
#52m (antibody, V domains shown, Germline-edited (m) form of 9H4, heavy chain edited; IgG; also called 9H4 (modified)) VH: QVQLVESGGGLVQPGGSLRISCTASGFTFRNYEMNWVRQAPGKGLEWVAYISSSGSSRYYADSVKGRFTISRDNAKNSLFLQMNSLRAEDMAVYYCARTDDGSSWFVSTSSFYGMDVWGQGTTVTVSS VL: EIVLTQSPGIQSLSPGETATLSCRASESISSSYFAWYQQKPGQAPRLLIYGASSRASGIPDRFSGSGSGTDFTLTISRLEPEDFAVYYCQQYGSSPPITFGQGTRLEIKR | ~0.89 nM

— patent publication US20240182547A1 (MOGAM INSTITUTE FOR BIOMEDICAL RESEARCH, published 2024)
